{"source": "patent US20230357431A1", "key": {"[1]": {"biological_target": "VH1VL1-CD8ATD-CD137CSD-CD3zSSD fusion (anti-P329G chimeric antigen receptor)", "sequence (chain, as listed by the source P329G P329G)": "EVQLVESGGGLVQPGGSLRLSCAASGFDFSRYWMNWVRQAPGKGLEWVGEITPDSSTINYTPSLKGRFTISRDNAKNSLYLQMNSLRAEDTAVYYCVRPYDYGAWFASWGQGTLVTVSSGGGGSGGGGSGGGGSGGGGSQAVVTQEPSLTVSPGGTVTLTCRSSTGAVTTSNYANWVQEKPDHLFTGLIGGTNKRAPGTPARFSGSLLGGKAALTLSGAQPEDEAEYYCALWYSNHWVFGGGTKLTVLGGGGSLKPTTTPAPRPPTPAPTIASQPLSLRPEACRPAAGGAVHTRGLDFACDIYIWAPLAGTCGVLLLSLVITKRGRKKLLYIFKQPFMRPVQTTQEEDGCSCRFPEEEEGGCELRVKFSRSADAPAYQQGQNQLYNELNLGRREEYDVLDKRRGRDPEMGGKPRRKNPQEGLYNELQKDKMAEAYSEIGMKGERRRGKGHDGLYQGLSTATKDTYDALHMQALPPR"}, "[2]": {"biological_target": "VH2VL1-CD8ATD-CD137CSD-CD3zSSD fusion (anti-P329G chimeric antigen receptor)", "sequence (chain, as listed by the source P329G P329G)": "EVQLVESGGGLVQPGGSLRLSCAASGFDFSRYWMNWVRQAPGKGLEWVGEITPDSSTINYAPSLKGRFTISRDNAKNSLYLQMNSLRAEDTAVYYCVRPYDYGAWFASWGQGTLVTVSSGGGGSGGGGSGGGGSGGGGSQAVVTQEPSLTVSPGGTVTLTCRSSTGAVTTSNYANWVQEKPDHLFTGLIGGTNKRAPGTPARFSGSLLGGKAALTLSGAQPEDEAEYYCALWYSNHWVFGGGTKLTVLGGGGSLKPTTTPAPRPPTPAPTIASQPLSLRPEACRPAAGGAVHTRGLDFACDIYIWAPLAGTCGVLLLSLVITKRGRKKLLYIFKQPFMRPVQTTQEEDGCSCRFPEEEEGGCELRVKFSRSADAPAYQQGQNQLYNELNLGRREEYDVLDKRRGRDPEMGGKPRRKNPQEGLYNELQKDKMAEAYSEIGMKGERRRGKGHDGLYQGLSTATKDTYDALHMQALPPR"}, "[3]": {"biological_target": "VH3VL1-CD8ATD-CD137CSD-CD3zSSD fusion (anti-P329G chimeric antigen receptor)", "sequence (chain, as listed by the source P329G P329G)": "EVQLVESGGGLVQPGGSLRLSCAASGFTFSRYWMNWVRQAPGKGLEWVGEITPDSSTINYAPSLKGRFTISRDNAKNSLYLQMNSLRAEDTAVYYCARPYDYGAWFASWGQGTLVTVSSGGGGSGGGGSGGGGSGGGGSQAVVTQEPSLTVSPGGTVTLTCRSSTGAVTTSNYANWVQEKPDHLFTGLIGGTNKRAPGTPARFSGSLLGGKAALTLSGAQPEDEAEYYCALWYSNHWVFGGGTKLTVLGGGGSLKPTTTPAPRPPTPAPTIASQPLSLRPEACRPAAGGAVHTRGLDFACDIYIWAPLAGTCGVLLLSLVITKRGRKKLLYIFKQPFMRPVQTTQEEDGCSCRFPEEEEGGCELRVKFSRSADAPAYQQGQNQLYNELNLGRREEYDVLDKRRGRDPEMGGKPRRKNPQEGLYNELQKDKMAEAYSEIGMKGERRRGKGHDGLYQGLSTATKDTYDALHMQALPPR"}, "[4]": {"biological_target": "VL1VH3-CD8ATD-CD137CSD-CD3zSSD fusion (anti-P329G chimeric antigen receptor, VLVH orientation)", "sequence (chain, as listed by the source P329G P329G)": "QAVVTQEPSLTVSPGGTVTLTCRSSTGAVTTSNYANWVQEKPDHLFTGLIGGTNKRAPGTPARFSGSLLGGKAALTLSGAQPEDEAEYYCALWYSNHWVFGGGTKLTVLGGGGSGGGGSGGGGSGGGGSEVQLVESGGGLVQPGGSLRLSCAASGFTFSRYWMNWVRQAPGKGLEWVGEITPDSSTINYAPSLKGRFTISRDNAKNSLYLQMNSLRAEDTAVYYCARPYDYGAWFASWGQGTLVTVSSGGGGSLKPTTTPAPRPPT"}, "[5]": {"biological_target": "VH1VL1-CD8ATD-CD137CSD-CD3zSSD fusion (anti-P329G chimeric antigen receptor)", "remark": "listed apart in the source"}, "[6]": {"biological_target": "VH2VL1-CD8ATD-CD137CSD-CD3zSSD fusion (anti-P329G chimeric antigen receptor)", "remark": "listed apart in the source"}, "[7]": {"biological_target": "VH3VL1-CD8ATD-CD137CSD-CD3zSSD fusion (anti-P329G chimeric antigen receptor)", "remark": "listed apart in the source"}, "[8]": {"biological_target": "VL1VH3-CD8ATD-CD137CSD-CD3zSSD fusion (anti-P329G chimeric antigen receptor, VLVH orientation)", "remark": "listed apart in the source"}, "[9]": {"biological_target": "VH2VL1-CD8ATD-CD137CSD-CD3zSSD fusion (anti-P329G chimeric antigen receptor)", "remark": "listed apart in the source"}, "[10]": {"biological_target": "VH3VL1-CD8ATD-CD137CSD-CD3zSSD fusion (anti-P329G chimeric antigen receptor)", "remark": "listed apart in the source"}, "[11]": {"biological_target": "VL1VH3-CD8ATD-CD137CSD-CD3zSSD fusion (anti-P329G chimeric antigen receptor, VLVH orientation)", "remark": "listed apart in the source"}, "[12]": {"biological_target": "VH1VL1-CD8ATD-CD137CSD-CD3zSSD fusion (anti-P329G chimeric antigen receptor)", "remark": "listed apart in the source"}, "[13]": {"biological_target": "VL1VH3-CD8ATD-CD137CSD-CD3zSSD fusion (anti-P329G chimeric antigen receptor, VLVH orientation)", "remark": "listed apart in the source"}, "[14]": {"biological_target": "VH1VL1-CD8ATD-CD137CSD-CD3zSSD fusion (anti-P329G chimeric antigen receptor)", "remark": "listed apart in the source"}, "[15]": {"biological_target": "VH2VL1-CD8ATD-CD137CSD-CD3zSSD fusion (anti-P329G chimeric antigen receptor)", "remark": "listed apart in the source"}, "[16]": {"biological_target": "VH3VL1-CD8ATD-CD137CSD-CD3zSSD fusion (anti-P329G chimeric antigen receptor)", "remark": "listed apart in the source"}, "[17]": {"biological_target": "VL1VH3-CD8ATD-CD137CSD-CD3zSSD fusion (anti-P329G chimeric antigen receptor, VLVH orientation)", "remark": "listed apart in the source"}}, "note": "Like-named read-outs stand apart in the source and are kept apart here.", "data": [{"substance": "anti-CD20 (GA101) P329G LALA IgG1 (antibody)", "values": [{"measurement": "EC50, Jurkat NFAT luciferase reporter (RLU/s), WSUDLCL2 target cells 5:1; sigmoid curve with upper plateau", "setting": "[1]", "value": 8.1, "unit": "pM"}, {"measurement": "EC50, Jurkat NFAT luciferase reporter (RLU/s), WSUDLCL2 target cells 5:1; sigmoid curve with upper plateau", "setting": "[2]", "value": 6.93, "unit": "pM"}, {"measurement": "EC50, Jurkat NFAT luciferase reporter (RLU/s), WSUDLCL2 target cells 5:1; sigmoid curve with upper plateau", "setting": "[3]", "value": 7.57, "unit": "pM"}, {"measurement": "EC50, Jurkat NFAT luciferase reporter (RLU/s), WSUDLCL2 target cells 5:1; sigmoid curve with upper plateau", "setting": "[4]", "value": 6.58, "unit": "pM"}]}, {"substance": "anti-CD20 (GA101) D246A P329G IgG1 (antibody)", "values": [{"measurement": "EC50, Jurkat NFAT luciferase reporter (RLU/s), WSUDLCL2 target cells 5:1; sigmoid curve with upper plateau", "setting": "[5]", "value": 8.14, "unit": "pM"}, {"measurement": "EC50, Jurkat NFAT luciferase reporter (RLU/s), WSUDLCL2 target cells 5:1; sigmoid curve with upper plateau", "setting": "[6]", "value": 10.4, "unit": "pM"}, {"measurement": "EC50, Jurkat NFAT luciferase reporter (RLU/s), WSUDLCL2 target cells 5:1; sigmoid curve with upper plateau", "setting": "[7]", "value": 5.82, "unit": "pM"}, {"measurement": "EC50, Jurkat NFAT luciferase reporter (RLU/s), WSUDLCL2 target cells 5:1; sigmoid curve with upper plateau", "setting": "[8]", "value": 6.19, "unit": "pM"}]}, {"substance": "DP47 P329G LALA (antibody)", "values": [{"measurement": "EC50, Jurkat NFAT luciferase reporter (RLU/s), WSUDLCL2 target cells 5:1, non-targeting antibody; the curve stays at about 60 to 90 RLU/s (no activation), so the fitted value has no meaning", "setting": "[9]", "value": 293, "unit": "pM"}, {"measurement": "EC50, Jurkat NFAT luciferase reporter (RLU/s), WSUDLCL2 target cells 5:1, non-targeting antibody; flat at about 90 RLU/s with a small rise to about 190 RLU/s at the last point, no plateau", "setting": "[10]", "value": 43200, "unit": "pM"}, {"measurement": "EC50, Jurkat NFAT luciferase reporter (RLU/s), WSUDLCL2 target cells 5:1, non-targeting antibody; the curve stays at about 60 to 110 RLU/s (no activation), so the fitted value has no meaning", "setting": "[11]", "value": 7420, "unit": "pM"}]}, {"substance": "anti-CD20 (GA101) LALA IgG1 (antibody)", "values": [{"measurement": "EC50, Jurkat NFAT luciferase reporter (RLU/s), WSUDLCL2 target cells 5:1; the curve is flat (no activation), so the fitted value has no meaning", "setting": "[12]", "value": 0.0485, "unit": "pM"}, {"measurement": "EC50, Jurkat NFAT luciferase reporter (RLU/s), WSUDLCL2 target cells 5:1; the curve is flat (no activation), so the fitted value has no meaning", "setting": "[13]", "value": 0.000234, "unit": "pM"}]}, {"substance": "anti-CD20 (GA101) wild type IgG1 (antibody)", "values": [{"measurement": "EC50, Jurkat NFAT luciferase reporter (RLU/s), WSUDLCL2 target cells 5:1; the curve is flat (no activation), so the fitted value has no meaning", "setting": "[14]", "value": 2.19, "unit": "pM"}, {"measurement": "EC50, Jurkat NFAT luciferase reporter (RLU/s), WSUDLCL2 target cells 5:1; the curve is flat (no activation), so the fitted value has no meaning", "setting": "[15]", "value": 0.000119, "unit": "pM"}, {"measurement": "EC50, Jurkat NFAT luciferase reporter (RLU/s), WSUDLCL2 target cells 5:1; the curve is flat (no activation), so the fitted value has no meaning", "setting": "[16]", "value": 85, "unit": "pM"}, {"measurement": "EC50, Jurkat NFAT luciferase reporter (RLU/s), WSUDLCL2 target cells 5:1; the curve is flat (no activation), so the fitted value has no meaning", "setting": "[17]", "value": 78.3, "unit": "pM"}]}]}
